Experimental data: publication PMC2881700 (Journal of immunology (Baltimore, Md. : 1950), 2010)

B1: monomeric [3H]LOS·sCD14 complex (endotoxin·CD14) (natural protein, UniProt P08571 20-345, looked up)
chain: TTPEPCELDDEDFRCVCNFSEPQPDWSEAFQCVSAVEVEIHAGGLNLEPFLKRVDADADPRQYADTVKALRVRRLTVGAAQVPAQLLVGALRVLAYSRLKELTLEDLKITGTMPPLPLEATGLALSSLRLRNVSWATGRSWLAELQQWLKPGLKVLSIAQAHSPAFSCEQVRAFPALTSLDLSDNPGLGERGLMAALCPHKFPAIQNLALRNTGMETPTGVCAALAAAGVQPHSLDLSHNSLRATVNPSAPRCMWSSALNSLNLSFAGLEQVPKGLPAKLRVLDLSCNRLNRAPQPDELPEVDNLTLDGNPFLVPGTALPHEGSMN
B2: monomeric [3H]LOS·MD-2His6 complex (endotoxin·MD-2) (natural protein)
chain: QKQYWVCNSSDASISYTYCDKMQYPISINVNPCIELKRSKGLLHIFYIPRRDLKQLYFNLYITVNTMNLPKRKEVICRGSDDDYSFCRALKGETVNTTISFSFKGIKFSKGKYKCVVEAISGSPEEMLFCLEFVILHQPNSN

What was measured:
Experiment in all cases: radioligand binding
[1] = biological target: MD-2Flag.His6/FlagTLR4ecd (wild type) complex (human, UniProt Q9Y6Y9 19-160; O00206 24-631)
MD-2Flag.His6/FlagTLR4ecd (wild type) complex, sequence (O00206 24-631, one chain of several): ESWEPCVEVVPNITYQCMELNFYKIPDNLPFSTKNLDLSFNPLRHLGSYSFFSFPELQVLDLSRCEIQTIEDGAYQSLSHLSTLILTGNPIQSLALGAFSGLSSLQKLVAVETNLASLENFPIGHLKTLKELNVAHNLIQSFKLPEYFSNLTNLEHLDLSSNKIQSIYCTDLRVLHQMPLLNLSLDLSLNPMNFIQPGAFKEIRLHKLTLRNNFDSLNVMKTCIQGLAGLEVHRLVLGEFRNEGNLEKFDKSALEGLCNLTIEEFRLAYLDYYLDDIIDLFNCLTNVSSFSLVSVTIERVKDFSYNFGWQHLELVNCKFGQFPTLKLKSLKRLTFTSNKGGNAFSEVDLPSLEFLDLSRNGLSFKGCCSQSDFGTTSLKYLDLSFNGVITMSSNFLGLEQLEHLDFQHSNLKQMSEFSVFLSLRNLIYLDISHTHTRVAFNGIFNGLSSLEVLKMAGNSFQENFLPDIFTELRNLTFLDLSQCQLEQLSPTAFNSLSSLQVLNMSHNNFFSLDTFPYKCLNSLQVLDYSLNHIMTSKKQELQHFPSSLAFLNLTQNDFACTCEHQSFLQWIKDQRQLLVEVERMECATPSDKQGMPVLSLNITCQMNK

[2] = biological target: MD-2Flag.His6/FlagTLR4ecd D299G.T399I complex (human, UniProt Q9Y6Y9 19-160; O00206 24-631, D299G | T399I)
MD-2Flag.His6/FlagTLR4ecd D299G.T399I complex, sequence (O00206 24-631 D299G/T399I, one chain of several): as the sequence (O00206 24-631, one chain of several) above, with D276G, T376I counted along it

[3] = biological target: full-length D299G.T399I TLR4 expressed on HEK293T cells without MD-2 (human, UniProt O00206 24-839, D299G | T399I)
full-length D299G.T399I TLR4 expressed on HEK293T cells without MD-2, sequence (O00206 24-839 D299G/T399I): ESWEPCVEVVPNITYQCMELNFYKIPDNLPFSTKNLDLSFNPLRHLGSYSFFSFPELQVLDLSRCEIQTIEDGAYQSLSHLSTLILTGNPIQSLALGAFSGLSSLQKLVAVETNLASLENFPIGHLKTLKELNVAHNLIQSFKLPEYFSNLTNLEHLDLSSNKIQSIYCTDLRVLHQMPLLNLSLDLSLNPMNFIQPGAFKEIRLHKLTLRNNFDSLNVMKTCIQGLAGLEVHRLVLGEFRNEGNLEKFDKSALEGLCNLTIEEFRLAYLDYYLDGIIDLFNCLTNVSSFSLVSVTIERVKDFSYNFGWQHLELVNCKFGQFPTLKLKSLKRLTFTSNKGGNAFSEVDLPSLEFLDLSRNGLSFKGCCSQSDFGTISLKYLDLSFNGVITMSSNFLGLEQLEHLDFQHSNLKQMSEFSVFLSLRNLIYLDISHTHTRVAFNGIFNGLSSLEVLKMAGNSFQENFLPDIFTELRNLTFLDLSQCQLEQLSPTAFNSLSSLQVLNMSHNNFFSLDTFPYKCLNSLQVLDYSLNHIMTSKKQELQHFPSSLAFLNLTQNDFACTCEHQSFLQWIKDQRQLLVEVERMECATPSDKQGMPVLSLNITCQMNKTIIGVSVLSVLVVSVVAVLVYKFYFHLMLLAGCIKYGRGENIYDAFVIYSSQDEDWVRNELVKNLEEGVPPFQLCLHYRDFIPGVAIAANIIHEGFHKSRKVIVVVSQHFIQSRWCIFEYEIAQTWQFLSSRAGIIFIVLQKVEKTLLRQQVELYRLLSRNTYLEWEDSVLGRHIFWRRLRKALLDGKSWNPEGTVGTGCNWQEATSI

[4] = biological target: FlagTLR4ecd, wild type (extracellular domain of human TLR4, residues 24-631) (human, UniProt O00206 24-631)
FlagTLR4ecd, wild type (extracellular domain of human TLR4, residues 24-631), sequence (O00206 24-631): as the sequence (O00206 24-631, one chain of several) above

Row | Binder | Kd [1] [nM] | Kd [2] [nM] | fold reduction of cell binding against wt TLR4 [3] [fold] | Kd [4] [nM]
1 | B1 | 0.196 | 0.186 | – | –
2 | B2 | – | – | ≥ 10 | 0.221 ± 0.043
